Measured values taken from US20020150536, “Nucleic acid ligands to integrins” (GILEAD SCIENCES, INC., published 2002).
Where a chain is given by its changes, count along the chain named. Where two headings read alike, the source gives them in different places.

Key:
[1] = target: T1, integrin alphaV beta3 (Homo sapiens, UniProt P06756;P06756;P05106 P06756:31-889,P06756:891-1048,P05106:27-788); assay: microtiter plate, streptavidin-AP; Mg2+, Ca2+, Mn2+, pH 7.5, 37 C
Method: The affinity of individual RNAs and RNA pools for αᵥβ₃ was determined by titration of biotinylated RNA with a small quantity of immobilized integrin. Bound RNA was detected through the biotin moiety. Biotinylated RNA was prepared according to standard transcription protocols, but including a 5-fold molar excess of a 5′-biotin-modified GMP over GTP in the reaction mixture. Methods for synthesizing 5′-biotin-modified guanosine nucleotides are described in WO 98/30720 entitled “Bioconjugation of Oligonucleotides,” specifically incorporated herein by reference in its entirety. The modified nucleotide is incorporated at the 5′ end of the transcript in proportion to its representation in the guanosine pool. 96-well microtiter plates (Immulon 2, Dynatech Laboratories, Inc., Chantilly, Va.) were coated overnight at 4° C. with 100 μL purified αᵥβ₃ at a concentration of 0.25 μg/mL in 20 mM TrisHCl, pH 7.5, 150 mM NaCl, 1 mM MgCl₂, 2 mM CaCl₂, 0.1 mM MnCl₂. Coating concentrations were 0.8 μg/mL for αIIbβ₃ and 0.3 μg/mL for αᵥβ₅. Wells were blocked with 200 μL of a solution of 3% BSA in the same buffer (1 hour at room temperature) then rinsed 3 times with 200 μL binding buffer (50 mM TrisHCl, pH 7.5, 137 mM NaCl, 2.7 mM KCl, 1 mM MgCl₂, 2 mM CaCl₂, 0.1 mM MnCl₂, 0.1% BSA). Individual RNAs or RNA pools were denatured briefly at 93° C. in binding buffer without divalent cations or BSA, then serially diluted in the same buffer. 50 μL binding buffer containing 2×-concentrations of divalent cations and BSA were added to each well, followed by 50 μL RNA dilution. RNAs were allowed to incubate in the integrin-coated wells at 37° C. for 30-60 minutes. Unbound RNAs were removed by 3 rapid washes in binding buffer. To detect bound RNA, 100 μL of a 1:2500 dilution in binding buffer of streptavidin-alkaline phosphatase conjugate (Calbiochem) were incubated in each well for 30 minutes at room temperature, followed by three rapid washes, as above. 100 μL/well p-nitrophenyl phosphate (Sigma Chemical Co., St. Louis, Mo.) was added and incubated at room temperature for 30 minutes. Color development was monitored by absorbance at 405 nm.

[2] = target: T1, integrin alphaV beta3; assay: inhibition; inhibition of biotinylated vitronectin binding (10 nM), room temperature
Method: (§1) While the SELEX process identifies RNA sequences with high affinity for a particular target, the procedure used in this example was designed to bias for the recovery of ligand binding site inhibitors by the inclusion of a cRGD peptide competitor in the elution buffer. To test whether aptamer 17.16 could block the ligand binding site of αᵥβ₃ or αIIbβ₃, purified vitronectin and fibrinogen were biotinylated and incubated with one or both of the immobilized integrins in the presence or absence of varying concentrations of the aptamer or a non-binding control RNA. This was done as follows: purified integrin ligands, vitronectin and fibrinogen, were biotinylated according to (Smith et al. (1990) J. Biol. Chem. 265:12267-71). Briefly, proteins were dialyzed into 0.1 M NaHCO₃, 0.1 M NaCl. N-hydroxysuccinimido-LC-biotin (Pierce) was dissolved at 1 mg/mL in DMSO and added to the protein at a ratio of 0.1 mg biotin per 1 mg protein. The reaction was allowed to rotate at room temperature for 2 hours. Biotinylated proteins were dialyzed into phosphate-buffered saline and their concentrations determined by absorbance at 280 nm. […] Absorbance was read at 405 nm.

[3] = target: integrin alphaIIb beta3 on human platelets (Homo sapiens, UniProt P08514;P08514;P05106 P08514:32-887,P08514:891-1039,P05106:27-788); assay: flow; EDTA-sensitive binding, same for resting and thrombin-activated platelets; Mg2+, Ca2+, room temperature
Method: Human platelets were chosen for this purpose because of their ease of isolation and their high level of expression of integrin αIIbβ₃. Because αIIbβ₃ undergoes a conformational change upon platelet activation, binding of the aptamer to both resting and thrombin-activated platelets was tested. […] Briefly, RNA was transcribed in the presence of a 5-fold molar excess of the initiator nucleotide guanosine-5′-O-(2-thiodiphosphate) (Calciochem), followed by conjugation of the gel-purified RNA to 5-iodoacetamidofluorescein (Pierce, Rockford, Ill.). Platelet-rich plasma was prepared from freshly-drawn citrated human blood by centrifugation at 1000 rpm for 15 minutes in a table top centrifuge. For activated platelets, cells were incubated for 15 minutes at room temperature at 2×10⁷/mL in calcium- and magnesium-free Dulbecco's PBS with 2.5 U/mL thrombin and 5 mM Gly-Pro-Arg-Pro (GPRP) to inhibit platelet aggregation. […] Resting cells were diluted similarly, without exposure to thrombin or GPRP. The activation state of resting and thrombin-treated cells was monitored by staining with fluorophore-conjugated antibodies to CD61 (β₃ integrin subunit), which binds to all platelets, and to CD62 (P-selectin), a marker of platelet activation. […] The incubation mixtures were applied directly to a Becton Dickinson FACSCalibur flow cytometer to determine the mean fluorescence intensity of the sample. […]

[4] = target: T2, integrin alphaIIb beta3 (UniProt P08514;P08514;P05106 P08514:32-887,P08514:891-1039,P05106:27-788); assay: inhibition; inhibition of biotinylated fibrinogen binding (6 nM), room temperature; conditions: tags: Enzyme Research Laboratories
Method: (§2) An estimate of the maximum absorbance value was determined for each ligand/integrin pair in the absence of competitor. The baseline absorbance value was determined by adding 5 mM EDTA to the incubation buffer.
as §1

[5] = target: T1, integrin alphaV beta3; assay: as above
Method: as §2, §1

[6] = target: integrin alphaV beta5 (Homo sapiens, UniProt P06756;P06756;P18084 P06756:31-889,P06756:891-1048,P18084:24-799); assay: no binding observed to immobilized alphaV beta5; conditions: tags: Chemicon International
integrin alphaV beta5, sequence (P06756 31-889, chain 1 of 3): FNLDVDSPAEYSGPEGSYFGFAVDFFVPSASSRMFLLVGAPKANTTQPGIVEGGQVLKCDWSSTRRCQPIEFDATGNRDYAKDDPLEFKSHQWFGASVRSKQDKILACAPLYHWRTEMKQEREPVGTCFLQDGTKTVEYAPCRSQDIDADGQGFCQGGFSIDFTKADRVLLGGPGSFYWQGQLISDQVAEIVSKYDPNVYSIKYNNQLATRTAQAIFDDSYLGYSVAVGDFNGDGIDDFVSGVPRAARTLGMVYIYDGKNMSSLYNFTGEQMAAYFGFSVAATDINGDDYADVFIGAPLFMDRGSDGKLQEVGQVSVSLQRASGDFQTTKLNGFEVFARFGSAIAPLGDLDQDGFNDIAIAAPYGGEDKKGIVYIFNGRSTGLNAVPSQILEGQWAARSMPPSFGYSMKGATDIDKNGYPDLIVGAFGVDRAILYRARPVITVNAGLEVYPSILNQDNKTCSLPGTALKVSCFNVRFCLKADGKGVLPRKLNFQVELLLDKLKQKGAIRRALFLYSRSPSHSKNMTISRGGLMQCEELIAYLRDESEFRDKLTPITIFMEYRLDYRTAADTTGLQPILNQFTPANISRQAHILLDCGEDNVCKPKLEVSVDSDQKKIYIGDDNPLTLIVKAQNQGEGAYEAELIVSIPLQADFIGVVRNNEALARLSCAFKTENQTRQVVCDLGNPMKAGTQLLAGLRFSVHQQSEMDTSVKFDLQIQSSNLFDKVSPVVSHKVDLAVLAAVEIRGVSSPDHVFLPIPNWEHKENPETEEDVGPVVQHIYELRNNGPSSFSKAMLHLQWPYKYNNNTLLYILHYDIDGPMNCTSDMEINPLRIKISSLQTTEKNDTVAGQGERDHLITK
integrin alphaV beta5, sequence (P06756 891-1048, chain 2 of 3): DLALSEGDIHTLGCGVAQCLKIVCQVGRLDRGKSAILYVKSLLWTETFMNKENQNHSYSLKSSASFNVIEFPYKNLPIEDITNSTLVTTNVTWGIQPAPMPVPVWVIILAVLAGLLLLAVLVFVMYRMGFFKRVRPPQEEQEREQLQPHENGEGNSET
integrin alphaV beta5, sequence (P18084 24-799, chain 3 of 3): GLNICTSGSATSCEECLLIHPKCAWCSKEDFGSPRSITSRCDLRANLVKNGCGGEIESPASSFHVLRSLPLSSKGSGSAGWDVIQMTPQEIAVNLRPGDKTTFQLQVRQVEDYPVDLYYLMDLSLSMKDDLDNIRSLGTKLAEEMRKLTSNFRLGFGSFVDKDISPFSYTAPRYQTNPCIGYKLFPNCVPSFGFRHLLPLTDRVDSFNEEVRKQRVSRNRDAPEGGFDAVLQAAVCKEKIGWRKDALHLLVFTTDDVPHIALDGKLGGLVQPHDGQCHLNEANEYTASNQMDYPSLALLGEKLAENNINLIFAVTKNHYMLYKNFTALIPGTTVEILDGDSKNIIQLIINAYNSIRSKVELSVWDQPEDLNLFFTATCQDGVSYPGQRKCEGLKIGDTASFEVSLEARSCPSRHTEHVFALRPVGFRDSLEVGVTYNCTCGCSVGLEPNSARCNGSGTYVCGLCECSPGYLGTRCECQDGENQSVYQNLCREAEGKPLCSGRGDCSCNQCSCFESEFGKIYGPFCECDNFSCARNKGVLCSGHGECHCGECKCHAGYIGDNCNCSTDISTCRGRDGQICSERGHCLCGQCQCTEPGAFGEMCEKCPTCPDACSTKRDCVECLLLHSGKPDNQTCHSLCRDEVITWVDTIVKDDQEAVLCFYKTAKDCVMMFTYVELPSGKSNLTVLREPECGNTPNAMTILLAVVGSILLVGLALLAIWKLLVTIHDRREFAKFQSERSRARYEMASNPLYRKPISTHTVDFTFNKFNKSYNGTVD
Method: (§3) The affinity of individual RNAs and RNA pools for αᵥβ₃ was determined by titration of biotinylated RNA with a small quantity of immobilized integrin. Bound RNA was detected through the biotin moiety. Biotinylated RNA was prepared according to standard transcription protocols, but including a 5-fold molar excess of a 5′-biotin-modified GMP over GTP in the reaction mixture. Methods for synthesizing 5′-biotin-modified guanosine nucleotides are described in WO 98/30720 entitled “Bioconjugation of Oligonucleotides,” specifically incorporated herein by reference in its entirety. The modified nucleotide is incorporated at the 5′ end of the transcript in proportion to its representation in the guanosine pool. 96-well microtiter plates (Immulon 2, Dynatech Laboratories, Inc., Chantilly, Va.) were coated overnight at 4° C. with 100 μL purified αᵥβ₃ at a concentration of 0.25 μg/mL in 20 mM TrisHCl, pH 7.5, 150 mM NaCl, 1 mM MgCl₂, 2 mM CaCl₂, 0.1 mM MnCl₂. Coating concentrations were 0.8 μg/mL for αIIbβ₃ and 0.3 μg/mL for αᵥβ₅. Wells were blocked with 200 μL of a solution of 3% BSA in the same buffer (1 hour at room temperature) then rinsed 3 times with 200 μL binding buffer (50 mM TrisHCl, pH 7.5, 137 mM NaCl, 2.7 mM KCl, 1 mM MgCl₂, 2 mM CaCl₂, 0.1 mM MnCl₂, 0.1% BSA). […] Color development was monitored by absorbance at 405 nm.

[7] = target: T2, integrin alphaIIb beta3; assay: affinity identical to alphaV beta3; platelet Kd of ~10 nM stated equivalent to purified alphaIIb beta3; conditions: tags: Enzyme Research Laboratories
Method: as §3

T1 sequence (P06756 31-889, chain 1 of 3): as the sequence (P06756 31-889, chain 1 of 3) above
T1 sequence (P06756 891-1048, chain 2 of 3): as the sequence (P06756 891-1048, chain 2 of 3) above
T1 sequence (P05106 27-788, chain 3 of 3): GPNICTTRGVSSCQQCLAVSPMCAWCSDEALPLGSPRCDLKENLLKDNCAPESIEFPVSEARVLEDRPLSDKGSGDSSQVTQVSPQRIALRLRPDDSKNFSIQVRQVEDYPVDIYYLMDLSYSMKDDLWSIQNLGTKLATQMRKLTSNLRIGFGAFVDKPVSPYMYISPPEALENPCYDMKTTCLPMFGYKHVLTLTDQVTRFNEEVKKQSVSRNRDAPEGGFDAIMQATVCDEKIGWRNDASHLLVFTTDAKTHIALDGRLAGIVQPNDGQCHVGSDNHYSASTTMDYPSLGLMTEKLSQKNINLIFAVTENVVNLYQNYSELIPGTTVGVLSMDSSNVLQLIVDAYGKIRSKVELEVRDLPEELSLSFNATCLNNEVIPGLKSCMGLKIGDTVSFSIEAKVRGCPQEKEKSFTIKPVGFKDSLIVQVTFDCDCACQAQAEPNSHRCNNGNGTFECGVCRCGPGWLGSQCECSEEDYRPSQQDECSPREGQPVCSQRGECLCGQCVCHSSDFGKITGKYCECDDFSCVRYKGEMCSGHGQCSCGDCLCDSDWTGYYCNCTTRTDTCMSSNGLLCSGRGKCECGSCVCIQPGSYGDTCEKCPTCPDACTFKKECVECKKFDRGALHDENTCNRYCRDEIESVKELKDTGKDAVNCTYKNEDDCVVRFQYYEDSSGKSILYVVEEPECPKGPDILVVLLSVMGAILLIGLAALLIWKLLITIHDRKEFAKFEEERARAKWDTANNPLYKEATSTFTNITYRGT

B1: 17.5 (ssRNA)
RNA: GGGAGACAAGAAUAAACGCUCAAUUCGACGCUGUGAAGGGCUUAUAUGAGCGGAUACACCCUUCGACAGGAGGCUCACAACAGGC
modifications: 2'-F C and U
Kd ([1]; label: 5'-biotin): 5 nM

B2: 15.2 (ssRNA)
RNA: GGGAGACAAGAAUAAACGCUCAAUUCAACGUUGUCAAAGGGCUUAUAUGAGCGGAUUACCCUUCGACAGGAGGCUCACAACAGGC
modifications: 2'-F C and U
Kd ([1]; label: 5'-biotin): 6 nM

B3: 15.14 (ssRNA)
RNA: B2 RNA with G30A, A36C
modifications: 2'-F C and U
Kd ([1]; label: 5'-biotin): 6 nM

B4: 17.16 (ssRNA)
RNA: GGGAGACAAGAAUAAACGCUCAAUUCAACGCUGUGAAGGGCUUAUACGAGCGGAUUACCCUUCGACAGGAGGCUCACAACAGGC
modifications: 2'-F C and U
IC50 [2]: 4.7 nM | Kd [3]: ~10 nM | IC50 [4]: 6.5 nM | IC50 [5]: 9.5 nM | Kd [1]: 8 nM | binding result [6]: no binding | Kd [7]: ~10 nM

B5: 17.7 (ssRNA)
RNA: B4 RNA with A27U
modifications: 2'-F C and U
Kd ([1]; label: 5'-biotin): 6 nM
